Laboratory results as given in article PMC9347351 (2022).

What was measured:
AS25 = biological target: T1, AS25 (synthetic construct (Homo sapiens …)); experiment: ITC
T1 chain: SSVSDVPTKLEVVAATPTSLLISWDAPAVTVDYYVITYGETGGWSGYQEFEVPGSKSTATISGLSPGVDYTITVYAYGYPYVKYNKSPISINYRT

L-pY peptide = L-pY peptide (phosphotyrosine (pY) at the fourth residue; 5-carboxyfluorescein on the N-terminus; C-terminal amide); experiment: ITC

B1: synthetic L-Bcr-Abl SH2 domain (domain or fragment)
chain: KKKKKSGVNSLEKHSWYHGPVSRNAAEYLLSSGINGSFLVRESESSPGQRSISLRYEGRVYHYRINTASDGKLYVSSESRFNTLAELVHHHSTVADGLITTLHYPAPKRNK
modifications: biotinylated (position of the biotin not stated in the text shown)
Kd (AS25): 184 nM
Kd (L-pY peptide): 4.89 µM
